Classification data for four molecules are collected here from patent US20050282743A1, “Molecular interactions in cells” (Arbor Vita Corporation, priority 2001, published 2005).

Assay in all cases: G' assay
The target in assay [1] is T1, GST-LIM Protein PDZ domain 1 (Homo sapiens (Human)), Q96HC4.
T1 chain: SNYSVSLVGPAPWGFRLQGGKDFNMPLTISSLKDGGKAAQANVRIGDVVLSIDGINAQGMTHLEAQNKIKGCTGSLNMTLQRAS

Assay [2] addresses T2, GST-ENIGMA PDZ domain 1 (Homo sapiens (Human)), Q9NR12.
T2 chain: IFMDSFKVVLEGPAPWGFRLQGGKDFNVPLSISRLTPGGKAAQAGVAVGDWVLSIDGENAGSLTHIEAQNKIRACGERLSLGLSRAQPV

Assay [3] addresses T3, GST-AF6 PDZ domain 1 (Homo sapiens (Human)), P55196.
T3 chain: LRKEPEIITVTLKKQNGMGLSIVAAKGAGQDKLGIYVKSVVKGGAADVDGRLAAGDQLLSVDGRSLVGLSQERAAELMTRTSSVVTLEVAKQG

The target in assay [4] is T4, GST-LIM-RIL PDZ domain 1 (Homo sapiens (Human)), P50479.
T4 chain: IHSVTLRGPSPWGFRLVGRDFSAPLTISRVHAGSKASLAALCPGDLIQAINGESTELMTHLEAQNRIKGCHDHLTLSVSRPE

The target in assay [5] is T5, GST-APXL-1 PDZ domain 1 (Homo sapiens (Human)), Q13796.
T5 chain: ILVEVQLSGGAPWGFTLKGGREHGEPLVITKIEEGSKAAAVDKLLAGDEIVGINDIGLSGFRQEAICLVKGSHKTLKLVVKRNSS

Assay [6] has as its target T6, GST-MUPP1 PDZ domain 13 (Homo sapiens (Human)), O75970.
T6 chain: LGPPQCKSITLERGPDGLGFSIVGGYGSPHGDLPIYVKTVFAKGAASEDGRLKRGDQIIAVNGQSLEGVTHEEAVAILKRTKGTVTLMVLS

For assay [7], the target named is T7, GST-novel PDZ gene PDZ domain 2 (Homo sapiens (Human)), Q9H5P4.
T7 chain: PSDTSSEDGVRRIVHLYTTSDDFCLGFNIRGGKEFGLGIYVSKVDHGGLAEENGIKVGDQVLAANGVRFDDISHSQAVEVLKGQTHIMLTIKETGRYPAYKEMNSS

In assay [8] the target is T8, GST-Syntrophin 1 alpha PDZ domain 1 (Homo sapiens (Human)), Q13424.
T8 chain: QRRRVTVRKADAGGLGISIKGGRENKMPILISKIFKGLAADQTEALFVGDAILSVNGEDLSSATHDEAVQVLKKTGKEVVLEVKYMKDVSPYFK

Assay [9] has as its target GST-BAI-1 Associated Protein PDZ domain 2 (Mus musculus (Mouse)), Q6RHR9.
The target in assay [10] is GST-KIAA1634 PDZ domain 5 (Homo sapiens (Human)), Q5TCQ9.
Chain of GST-KIAA1634 PDZ domain 5 (Homo sapiens (Human)), Q5TCQ9 (Q5TCQ9 other isoform, or with tags, fused parts or gaps): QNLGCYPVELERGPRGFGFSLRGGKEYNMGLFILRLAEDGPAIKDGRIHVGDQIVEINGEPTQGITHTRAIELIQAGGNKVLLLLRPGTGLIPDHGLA
The target of assay [11] is T9, GST-KIAA0807(S) PDZ domain 1 (Homo sapiens (Human)), Q6P0Q8.
T9 chain: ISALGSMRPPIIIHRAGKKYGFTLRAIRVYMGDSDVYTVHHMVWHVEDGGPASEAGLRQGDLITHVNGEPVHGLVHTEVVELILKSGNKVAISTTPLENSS

The target in assay [12] is GST-PSD95 PDZ domains 1, 2, 3 (Homo sapiens), P78352.
Chain of GST-PSD95 PDZ domains 1, 2, 3 (Homo sapiens), P78352 (P78352 62-395): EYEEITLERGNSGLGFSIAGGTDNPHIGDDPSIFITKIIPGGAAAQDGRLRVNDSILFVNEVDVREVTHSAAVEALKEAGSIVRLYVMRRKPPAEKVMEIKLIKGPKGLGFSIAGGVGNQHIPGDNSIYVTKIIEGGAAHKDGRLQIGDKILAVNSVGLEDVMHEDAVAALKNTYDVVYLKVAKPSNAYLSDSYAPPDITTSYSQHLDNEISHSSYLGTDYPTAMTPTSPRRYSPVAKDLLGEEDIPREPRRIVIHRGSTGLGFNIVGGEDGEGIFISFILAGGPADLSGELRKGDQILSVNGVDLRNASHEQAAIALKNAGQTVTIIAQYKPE
The target of assay [13] is GST-BAI-1 Associated Protein PDZ domain 6 (Homo sapiens (Human)), Q96QZ7.
Chain of GST-BAI-1 Associated Protein PDZ domain 6 (Homo sapiens (Human)), Q96QZ7 (Q96QZ7 1143-1233): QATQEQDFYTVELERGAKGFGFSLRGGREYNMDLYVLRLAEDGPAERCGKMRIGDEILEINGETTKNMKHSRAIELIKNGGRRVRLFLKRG
Assay [14] deals with GST-KIAA1634 PDZ domain 1 (Homo sapiens (Human)), Q5TCQ9.
Chain of GST-KIAA1634 PDZ domain 1 (Homo sapiens (Human)), Q5TCQ9 (Q5TCQ9 401-502): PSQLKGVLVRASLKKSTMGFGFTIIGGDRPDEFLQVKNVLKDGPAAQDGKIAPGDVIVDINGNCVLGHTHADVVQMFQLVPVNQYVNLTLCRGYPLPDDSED
In assay [15] the target is T10, GST-TIP1 PDZ domain 1 (Table 9 insert) (Homo sapiens (Human)), O14907.
T10 chain: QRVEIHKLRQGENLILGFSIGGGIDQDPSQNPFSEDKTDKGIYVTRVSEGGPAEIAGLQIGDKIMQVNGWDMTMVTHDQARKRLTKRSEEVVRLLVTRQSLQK

The target in assay [16] is T11, GST-KIAA0380 PDZ domain 1 (Homo sapiens (Human)), O15085.
T11 chain: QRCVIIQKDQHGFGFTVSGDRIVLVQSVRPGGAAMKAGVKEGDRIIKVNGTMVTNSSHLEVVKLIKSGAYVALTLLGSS

The target of assay [17] is T12, GST-PDZK1 PDZ domains 2, 3, 4, Q5T2W1.
T12 chain: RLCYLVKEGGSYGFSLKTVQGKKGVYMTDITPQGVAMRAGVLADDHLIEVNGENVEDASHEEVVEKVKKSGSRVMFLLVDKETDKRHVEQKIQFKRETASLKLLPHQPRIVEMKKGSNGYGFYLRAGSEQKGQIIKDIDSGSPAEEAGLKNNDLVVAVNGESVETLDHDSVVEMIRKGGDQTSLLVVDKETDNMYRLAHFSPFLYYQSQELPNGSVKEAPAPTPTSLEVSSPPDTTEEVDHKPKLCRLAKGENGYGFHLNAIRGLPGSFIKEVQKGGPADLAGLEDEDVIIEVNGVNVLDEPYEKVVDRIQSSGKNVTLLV

For assay [18], the target named is T13, GST-KIAA0382 PDZ domain 1 (Canis lupus familiaris (Dog) (Canis familiaris)), A0A8I3.
T13 chain: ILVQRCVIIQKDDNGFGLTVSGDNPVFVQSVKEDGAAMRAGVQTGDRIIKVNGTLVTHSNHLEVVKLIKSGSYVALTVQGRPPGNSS

Assay [19] has as its target GST-KIAA807 [GST: P08515].
The target of assay [20] is T14, GST-MINT1 PDZ domain 2 (Mus musculus (Mouse)), B2RUJ5.
T14 chain: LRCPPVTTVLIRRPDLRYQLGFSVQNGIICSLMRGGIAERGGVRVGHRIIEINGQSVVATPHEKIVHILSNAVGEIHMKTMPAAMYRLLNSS

Assay [21] concerns the target T15, GST-KIAA1526 PDZ domain 1 (Homo sapiens (Human)), Q9P202.
T15 chain: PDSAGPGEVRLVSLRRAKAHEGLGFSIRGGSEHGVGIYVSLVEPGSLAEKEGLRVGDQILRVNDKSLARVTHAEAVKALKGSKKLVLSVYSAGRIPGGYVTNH

In assay [22] the target is T16, GST-KIAA1719 PDZ domain 6 (Homo sapiens (Human)), Q9C0E4.
T16 chain: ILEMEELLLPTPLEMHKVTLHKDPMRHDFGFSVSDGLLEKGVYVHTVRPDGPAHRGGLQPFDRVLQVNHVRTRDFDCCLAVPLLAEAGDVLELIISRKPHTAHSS

The target in assay [23] is T17, GST-MINT1 PDZ domains 1, 2, Q02410.
T17 chain: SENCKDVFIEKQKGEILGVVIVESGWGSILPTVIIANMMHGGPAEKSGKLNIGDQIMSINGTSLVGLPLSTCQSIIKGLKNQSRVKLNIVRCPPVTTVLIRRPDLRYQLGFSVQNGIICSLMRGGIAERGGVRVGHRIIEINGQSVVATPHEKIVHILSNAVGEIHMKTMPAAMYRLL

The target in assay [24] is T18, GST-Shank 1 PDZ domain 1 (Homo sapiens (Human)), Q9UPX8.
T18 chain: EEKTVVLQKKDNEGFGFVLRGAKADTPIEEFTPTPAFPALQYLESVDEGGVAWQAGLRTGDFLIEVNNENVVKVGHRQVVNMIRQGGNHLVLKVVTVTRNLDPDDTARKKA

The target of assay [25] is T19, GST-GRIP 1 PDZ domain 7 (Homo sapiens (Human)), Q9Y3R0.
T19 chain: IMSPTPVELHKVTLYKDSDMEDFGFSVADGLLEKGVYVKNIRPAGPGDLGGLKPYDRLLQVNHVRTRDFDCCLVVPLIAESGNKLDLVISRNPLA

Assay [26] addresses GST-KIAA0316 PDZ domain 1 (Homo sapiens (Human)), Q14CM0.
Assay [27] concerns the target GST-PAR3 PDZ domain 3 (Homo sapiens (Human)), Q8TEW0.
Assay [28] deals with T20, GST-DVL2 PDZ domain 1 (Homo sapiens (Human)), O14641.
T20 chain: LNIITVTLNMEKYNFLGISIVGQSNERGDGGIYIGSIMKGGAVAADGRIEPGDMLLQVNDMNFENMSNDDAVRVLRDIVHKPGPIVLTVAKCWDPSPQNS

Assay [29] deals with T21, GST-KIAA0561 PDZ domain 1 (Homo sapiens (Human)), O60307.
T21 chain: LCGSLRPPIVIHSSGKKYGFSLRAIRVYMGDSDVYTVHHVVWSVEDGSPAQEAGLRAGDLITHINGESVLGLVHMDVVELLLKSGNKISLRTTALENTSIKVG

The target in assay [30] is T22, GST-MUPP1 PDZ domain 11 (Homo sapiens (Human)), O75970.
T22 chain: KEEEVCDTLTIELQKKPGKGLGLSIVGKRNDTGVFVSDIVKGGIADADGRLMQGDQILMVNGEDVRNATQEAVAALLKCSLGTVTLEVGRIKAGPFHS

In assay [31] the target is T23, GST-MUPP1 PDZ domain 3 (Homo sapiens (Human)), O75970.
T23 chain: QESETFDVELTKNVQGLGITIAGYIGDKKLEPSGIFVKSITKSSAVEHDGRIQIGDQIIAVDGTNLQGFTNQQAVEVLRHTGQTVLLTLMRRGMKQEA

The target in assay [32] is T24, GST-KIAA0973 PDZ domain 1 (Homo sapiens (Human)), Q9Y2H9.
T24 chain: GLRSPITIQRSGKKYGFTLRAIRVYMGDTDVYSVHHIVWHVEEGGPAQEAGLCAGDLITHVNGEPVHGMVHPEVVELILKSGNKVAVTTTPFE
Note: key of the grades not given here.

Chain of GST-KIAA807 [GST: P08515] (P08515 whole entry, the tested form may be a part): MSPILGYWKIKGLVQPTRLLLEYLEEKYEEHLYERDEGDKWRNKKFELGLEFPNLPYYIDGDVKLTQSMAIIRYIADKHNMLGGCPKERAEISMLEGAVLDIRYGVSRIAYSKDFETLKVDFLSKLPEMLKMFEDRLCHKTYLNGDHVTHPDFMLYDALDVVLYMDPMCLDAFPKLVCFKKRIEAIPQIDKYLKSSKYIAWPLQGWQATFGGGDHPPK
Chain of GST-BAI-1 Associated Protein PDZ domain 2 (Mus musculus (Mouse)), Q6RHR9 (Q6RHR9 455-558): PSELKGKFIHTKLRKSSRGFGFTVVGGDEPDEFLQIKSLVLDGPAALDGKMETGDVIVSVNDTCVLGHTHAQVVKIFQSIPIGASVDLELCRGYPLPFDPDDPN
Chain of GST-KIAA0316 PDZ domain 1 (Homo sapiens (Human)), Q14CM0 (Q14CM0 72-159): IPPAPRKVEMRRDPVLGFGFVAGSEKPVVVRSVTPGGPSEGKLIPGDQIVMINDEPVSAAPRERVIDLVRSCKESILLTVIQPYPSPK
Chain of GST-PAR3 PDZ domain 3 (Homo sapiens (Human)), Q8TEW0 (Q8TEW0 579-681): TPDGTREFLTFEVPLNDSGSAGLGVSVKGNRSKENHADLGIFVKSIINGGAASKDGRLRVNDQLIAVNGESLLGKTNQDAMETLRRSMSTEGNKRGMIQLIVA

B1: FceRlb (peptide)
peptide: YSATYSELEDPGEMSPPIDL
modifications: not checked
With B1, the Classification in assay [1] was determined as 2 A450 class; in [2] it was 2 A450 class; in assay [3] it was 2 A450 class; in assay [4], 1 A450 class; in [5] it was 1 A450 class.

B2: IL-8RA (peptide)
peptide: ARHRVTSYTSSSVNVSSNL
modifications: not checked
On to B2, for which the Classification in [6], in assay [7], in assay [8], in [9], in assay [10] and in [11] was 1 A450 class in each case. The Classification in assay [12], in assay [13], in [14], in [15], in [16] and in assay [17] was 1 A450 class in each case.

B3: SSTR2 (somatostatin recepor 2) (peptide)
peptide: LNETTETQRTLLNGDLQTSI
modifications: not checked
For the molecule B3, the Classification turned out to be 1 A450 class in assay [18]; 2 A450 class in assay [19]; 2 A450 class in assay [11]; 1 A450 class in assay [20]; 1 A450 class in [21]; 1 A450 class in assay [22]. In addition, the Classification in assay [23], in assay [24] and in [25] was 1 A450 class throughout.

B4: MINT-3 (peptide)
peptide: KTMPAATYRLLTGQEQPVYL
modifications: not checked
As to B4, the Classification in assay [26] is 2 A450 class; in assay [27], 1 A450 class; in assay [1], 1 A450 class; in assay [28], 1 A450 class; in assay [19], 1 A450 class; in assay [11] it was 1 A450 class. Also, the Classification came out at 2 A450 class in assay [20]; 1 A450 class in assay [29]; 2 A450 class in [23]; 1 A450 class in assay [3]; 2 A450 class in assay [30]; 1 A450 class in assay [31]. Also, in assay [32], the Classification is 2 A450 class.
